Molecular target: T1, connexin 36 (rat (endogenous in supraoptic nucleus), UniProt O70610 1-321)
T1 sequence (looked up): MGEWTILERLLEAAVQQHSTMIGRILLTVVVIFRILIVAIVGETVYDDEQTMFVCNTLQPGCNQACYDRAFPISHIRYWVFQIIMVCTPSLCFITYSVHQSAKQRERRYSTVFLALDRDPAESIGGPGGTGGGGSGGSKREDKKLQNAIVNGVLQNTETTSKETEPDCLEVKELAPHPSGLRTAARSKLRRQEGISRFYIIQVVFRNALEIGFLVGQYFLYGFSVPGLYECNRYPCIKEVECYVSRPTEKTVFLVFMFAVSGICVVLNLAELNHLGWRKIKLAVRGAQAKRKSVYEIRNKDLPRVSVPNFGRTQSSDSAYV
Experiment: co-IP

B1: oxytocin-neurophysin (natural protein, rat (endogenous in supraoptic nucleus), UniProt P01179 20-125, looked up)
chain: CYIQNCPLGGKRAALDLDMRKCLPCGPGGKGRCFGPSICCADELGCFVGTAEALRCQEENYLPSPCQSGQKPCGSGGRCATAGICCSPDGCRTDPACDPESAFSER
  fold co-precipitated OT-NP in lactating rats relative to virgin rats: 1.61 fold
